Measurements from publication PMC12283126, “The Pseudomonas aeruginosa Type VI secretion system toxin Tse8 evolved from a novel N-carbamoylputrescine amidohydrolase” (Biochemical Journal, 2025).

Legend:
Assay in all cases: ammonia release, indophenol blue, OD640; Michaelis-Menten fit
Conditions in all cases: 50 mM MES-NaOH pH 7.0, 1 mM DTT, 40 °C, 30 min, 10 nM enzyme
[1] = substrate: NCCCCNC(N)=O; type: biochemical, Shewanella oneidensis
Source text: ammonia release, indophenol blue, OD640; Michaelis-Menten fit on Shewanella oneidensis AguY (SoAguY)

[2] = substrate: NCCCCNC(N)=O; type: biochemical, Pseudomonas aeruginosa
Source text: ammonia release, indophenol blue, OD640; Michaelis-Menten fit on P. aeruginosa NCPAH/AguB (PaAguB)

[3] = substrate: NCCCCNC(N)=O; type: biochemical, Microterricola gilva
Source text: ammonia release, indophenol blue, OD640; Michaelis-Menten fit on Microterricola gilva AguY (MgAguY)

B1: Shewanella oneidensis AguY (SoAguY) (Shewanella oneidensis MR-1) (protein)
chain: MFEVTEVSIAELRAALESGRTTVVELVKSYLARVAAYDGPATETKLNALVVHNPDALKEAEASDARRARGETLSPLDGIPYTAKDSYLVKGLTAASGSPAFKDLVAQYDAFAVERLRAAGAICLGKTNMPPMANGGMQRGHYGRAESPYNAEYLTAPFASGSSNGAGTGTAASYSAFGLAEETWSSGRGPASNNGLCAYTPSRGVISVRGNWPLTPTMDVVVPYTRTMADMLEVLDVIVADDPITRGDLWRLQPWVQIPKASTVRPESYLALAASADTLKGKRFGVPRMYINKDELAGTSENPGIGGPTGQRIHTRQSVIDLWEAARKALEAAGAEVIEVDFPLVSNCEGDRPGAPTVFNRGIVTPQFLHDELWELSGWAFDEFLRANNDPKLNKLEDVVGHLIFPHDLCTLPNREGDLAAGMEEYVNMAKRGLKSFDQIDSIPDGLRGLEKTRKLDLEDWMDGLKLDAVLFPTVADVGPADAHVNPASADIAWSNGVWVANGNLAIRHLGVPTVTVPMGVMADIGMPVGLTFAGRAYDDNNLLKFAGAFESTGNRRIIPPRTPKLGQ
notes: full length, 568 aa, 60,996 Da; purified recombinant, codon-optimised synthetic gene, expressed in E. coli
B1 was tested, and the Km [1] was 740 ± 130 µM, the kcat [1] was 130 ± 4.5 s⁻¹ and the kcat/Km [1] was 179000 ± 28600 M⁻¹ s⁻¹.

B2: P. aeruginosa NCPAH/AguB (PaAguB) (Pseudomonas aeruginosa PAO1) (protein)
chain: MTRNVTVAATQMACSWDRPANIARAEKLVRQAAARGAQIILIQELFETPYFCQKPNPDYLQLATTVEENAAIAHFQALARELQVVLPISFFERAGRARFNSIAVIDADGGNLGVYRKSHIPDGPGYHEKYYFNPGDTGFKVWQTRYARIGVGICWDQWFPESARSMALLGAELLFYPTAIGSEPHDASISSRDHWQRVQQGHAGANLMPLVASNRIGREEQDGYDITFYGSSFIADPFGEKVEELNRTEEGILVHTFDLDALERTRSAWGVFRDRRPNLYGPLKTLDGSLES
notes: full length, 292 aa, 32,780 Da; purified recombinant, codon-optimised synthetic gene, expressed in E. coli
B2 gave a Km [2] of 660 ± 110 µM, a kcat [2] of 54.1 ± 3 s⁻¹ and a kcat/Km [2] of 82500 ± 8800 M⁻¹ s⁻¹.

B3: Microterricola gilva AguY (MgAguY) (Microterricola gilva) (protein)
chain: MTSPTVGKGGIVEAGIDELAAALAAGETSAVALLDAYLARIRAFDAPGTATALNAYVVMNPDARADAEASDARRARGESRGPLDGIPYSAKDSYLAAGLTAAAGSPAFTALIAQQDAFTIERLRTAGAVLIGLTNMPPMANGGMQRGAYGRAESPYNAAWLTAAFGSGSSNGSGTATAASMCAFGLGEETWSSGRAPASNNALCAYTPSRGIISMRGNWPLVPTMDVVVPHTRTMADLLRVLDVIVAEDGDTRGDFWRSQPWLEIPRVDEHRPASYPSLAPTDLAAAQATLRGTRLGVPRMYINGDQDAGTGEPGGIGGPTGQRIETRASVIELWEAARRDLEAAGATVVEVDFPLVSNYEGDRAGAPTITNRGLVSPEFLHTELNDLAAWAWNDFLEMNGDPRLSSLAAVDGERIFPAPPGSLPDRYQGFDDDIADLPRIAAERHWASVEEIEELADGIRGLEHTRAIDFDAWMASNRLDAVVFPAVADVGPADMDVNEASADAGWRNGVWVANGNLVIRHFGIPTVTVPMGLMRDIRMPVGLTFAGLPYDDVALLRLAAAFERTAERRVAPPLSAPPARAHR
notes: full length, 584 aa, 61,738 Da; purified recombinant, codon-optimised synthetic gene, expressed in E. coli; genome has a second AguY paralog
In the case of B3, the Km [3] is reported as 70 ± 300 µM, the kcat [3] is reported as 39 ± 1.5 s⁻¹ and the kcat/Km [3] is reported as 642000 ± 251000 M⁻¹ s⁻¹.
